The target in the test is T1, WWP2 recombinant protein (SEQ ID NO:24) (Homo sapiens (Human), UniProt O00308 1-870).
T1 construct: It was expressed with a pET28b His-tag/thrombin leader; also called WWP2 polypeptide; Nedd4 WWP2
In words: fluorescence polarization, WWP2 dose-response up to 19.6 µM, FITC-peptide probe at 5 nM.

No end group written: not given here. *: point of attachment. FITC = O=C1OC2(c3ccc(O)cc3Oc3cc(O)ccc32)c2ccc(NC(=S)*)cc21

T1 sequence (O00308 other isoform, or with tags, fused parts or gaps limits assumed): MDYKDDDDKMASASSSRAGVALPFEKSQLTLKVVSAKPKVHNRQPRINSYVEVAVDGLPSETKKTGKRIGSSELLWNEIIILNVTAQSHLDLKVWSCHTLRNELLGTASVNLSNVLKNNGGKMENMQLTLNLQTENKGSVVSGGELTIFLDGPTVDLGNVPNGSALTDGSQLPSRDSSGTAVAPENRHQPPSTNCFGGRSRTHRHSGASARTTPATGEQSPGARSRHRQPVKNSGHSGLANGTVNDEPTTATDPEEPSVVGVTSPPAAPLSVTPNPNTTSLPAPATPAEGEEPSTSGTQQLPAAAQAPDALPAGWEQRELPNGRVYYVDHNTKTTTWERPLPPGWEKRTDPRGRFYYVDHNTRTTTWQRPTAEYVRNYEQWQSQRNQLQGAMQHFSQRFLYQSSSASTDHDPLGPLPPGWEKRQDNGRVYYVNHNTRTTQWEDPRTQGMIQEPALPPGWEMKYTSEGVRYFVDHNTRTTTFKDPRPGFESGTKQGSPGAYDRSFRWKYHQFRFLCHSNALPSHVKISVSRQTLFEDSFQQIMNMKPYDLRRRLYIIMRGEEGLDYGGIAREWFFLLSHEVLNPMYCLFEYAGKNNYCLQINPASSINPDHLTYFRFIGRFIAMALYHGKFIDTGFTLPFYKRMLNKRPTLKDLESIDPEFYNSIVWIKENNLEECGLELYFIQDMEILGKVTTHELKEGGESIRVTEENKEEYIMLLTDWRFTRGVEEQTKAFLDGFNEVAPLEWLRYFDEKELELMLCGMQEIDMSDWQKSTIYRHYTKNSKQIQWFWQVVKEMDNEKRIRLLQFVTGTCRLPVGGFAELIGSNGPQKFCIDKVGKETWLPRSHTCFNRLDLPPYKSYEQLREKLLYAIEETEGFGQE

B1: FITC-labeled peptide probe with three tandem PY motif binding units derived from the p2 region of ASLV gag (SEQ ID NO:18) (peptide)
peptide: {FITC}-ATASAPPPYVGSGGGATASAPPPYVGSGGGATASAPPPYVGSGGGRRR
notes: Synthetic peptide (Biosynthesis, TX); also called FITC-peptide; FTIC-peptide
Take B1: the equilibrium dissociation constant (Kd) amounted to 200 nM.

For the origin of these results see US20200368258A1 (NORTHWESTERN UNIVERSITY, published 2020).
